Experimental data from paper PMC9238395, “Identification and Tetramer Structure of Hemin-Binding Protein SPD_0310 Linked to Iron Homeostasis and Virulence of Streptococcus pneumoniae” (mSystems, 2022).

B2: SPD_0310 (natural protein)
chain: MKKQAFSSEQYLNLQRDHILERINQFDGKLYLEFGGKMLEDFHAARVLPGYEPDNKIKLLQELKEQVEVVIAINASNIEHSKARGDLGISYDQEVLRLIDKFNELGIFVGSVVITQYAGQPAADAFRNQLEKNGIDSYLHYPIKGYPTDMDHIISPEGMGKNDYIKTSRNLIVVTAPGPGSGKLATCMSNMYHDQINGIKSGYAKFETFPIWNLPLHHPVNLAYEAATADLDDVNMIDPFHLQTYGETTVNYNRDIEIFPVLKRMLERILGKSPYASPTDMGVNMVGFAITDDEAAVEASKQEIIRRYYQTVLDFKAEKVGEAAVKKIELLMNDLGITPADRKVAVVARQKAEETGGPALAFELPNGEIVTGKNSELFGPTAAALINAIKKSADIAKEVKLIEPEVVKPIQGLKIDHLGSRNPRLHSNEILIALAITATENPDAARAMEELGNLKGSEAHSTIILTDEDKNVLRKLGINVTFDPYYQYDRLYRK
notes: SPD_0310, hypothetical protein of the UPF0371 family, S. pneumoniae D39; spd_0310 gene cloned from genomic DNA into pGEX-4T-1 (BamH I/Sal I); Homotetramer by crystal structure and DLS; also called apo-0310; apo-SPD_0310

How the values were obtained:
[1] = biological target: SPD_0310 (S. pneumoniae D39) (UniProt Q04MC1); test: SPR; OpenSPR; SPD_0310 immobilised on a gold nanoparticle COOH sensor chip; analytes in 1× PBS, 30 μL/min; regeneration with 0.5 to ~10 mM HCl; 1:1 model
SPD_0310 [2] = biological target: T1, SPD_0310 (Streptococcus pneumoniae, UniProt Q04MC1); test: SPR; also dialysis/ICP-MS, hemin-agarose pulldown, UV-Vis shift, CD thermal shift, stopped-flow fluorescence; type: binding
T1 construct: recombinant SPD_0310 expressed from pGEX-4T-1, GST tag removed with thrombin; homotetramer

SPD_0310 [3] = biological target: T2, SPD_0310 (Streptococcus pneumoniae, UniProt Q04MC1, E40A/R307A); test: fluorescence quenching titration; type: binding
T2 sequence (Q04MC1 1-494 E40A/R307A): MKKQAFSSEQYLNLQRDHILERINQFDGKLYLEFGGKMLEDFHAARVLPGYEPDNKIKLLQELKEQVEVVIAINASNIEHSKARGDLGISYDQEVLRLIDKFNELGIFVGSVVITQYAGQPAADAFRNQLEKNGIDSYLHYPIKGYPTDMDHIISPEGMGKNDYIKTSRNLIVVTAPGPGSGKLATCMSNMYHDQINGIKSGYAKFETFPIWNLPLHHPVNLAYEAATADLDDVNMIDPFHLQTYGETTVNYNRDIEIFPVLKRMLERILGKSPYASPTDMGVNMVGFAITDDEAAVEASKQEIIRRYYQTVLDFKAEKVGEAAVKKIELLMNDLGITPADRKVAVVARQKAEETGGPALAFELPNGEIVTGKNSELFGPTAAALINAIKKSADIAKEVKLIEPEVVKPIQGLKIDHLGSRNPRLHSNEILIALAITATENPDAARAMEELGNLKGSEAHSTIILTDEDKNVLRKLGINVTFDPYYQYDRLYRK

SPD_0310 [4] = biological target: T3, SPD_0310 (Streptococcus pneumoniae, UniProt Q04MC1, M38A/L39A/G88A/R97A); test: fluorescence quenching titration; type: binding
T3 sequence (Q04MC1 1-494 M38A/L39A/G88A/R97A): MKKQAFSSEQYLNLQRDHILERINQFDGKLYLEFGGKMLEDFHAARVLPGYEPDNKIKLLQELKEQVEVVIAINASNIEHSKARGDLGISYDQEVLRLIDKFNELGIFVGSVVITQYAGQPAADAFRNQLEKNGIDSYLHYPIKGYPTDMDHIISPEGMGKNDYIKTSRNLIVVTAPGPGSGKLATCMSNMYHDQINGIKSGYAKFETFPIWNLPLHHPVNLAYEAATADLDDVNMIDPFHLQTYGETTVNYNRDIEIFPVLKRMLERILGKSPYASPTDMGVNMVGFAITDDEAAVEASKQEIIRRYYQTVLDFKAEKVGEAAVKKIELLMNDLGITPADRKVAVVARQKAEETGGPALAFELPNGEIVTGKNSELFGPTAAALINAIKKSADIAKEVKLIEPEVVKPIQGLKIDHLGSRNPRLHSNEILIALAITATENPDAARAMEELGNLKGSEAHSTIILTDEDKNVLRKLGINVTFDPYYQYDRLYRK

SPD_0310 [5] = biological target: B2; test: SPR; OpenSPR; SPD_0310 immobilised on a gold nanoparticle COOH sensor chip; analytes in 1× PBS, 30 μL/min; regeneration with 0.5 to ~10 mM HCl; 1:1 model; conditions: both partners purified
[6] = biological target: the molecule itself; test: dynamic light scattering; fresh SPD_0310 in the native state, 3 μM in 1× PBS, 25°C

bovine lactoferrin (natural protein)
Kd [1]: 303 nM

C=CC1=C(C)C2=Cc3c(C=C)c(C)c4[n]3[Fe]([Cl])[n]3c(c(C)c(CCC(=O)O)c3=CC3=NC(=C4)C(C)=C3CCC(=O)O)=CC1=N2 [hemin]
Kd (SPD_0310 [2]): 96.9 nM
% of WT binding constant (SPD_0310 [3]): 11 % of WT binding constant
% of WT binding constant (SPD_0310 [4]): 56 % of WT binding constant

B1: GAPDH (natural protein, S. pneumoniae D39, UniProt A0A0H2US80 1-335, looked up)
chain: MVVKVGINGFGRIGRLAFRRIQNVEGVEVTRINDLTDPVMLAHLLKYDTTQGRFDGTVEVKEGGFEVNGKFIKVSAERDPEQIDWATDGVEIVLEATGFFAKKEAAEKHLKGGAKKVVITAPGGNDVKTVVFNTNHDVLDGTETVISGASCTTNCLAPMAKALQDNFGVVEGLMTTIHAYTGDQMILDGPHRGGDLRRARAGAANIVPNSTGAAKAIGLVIPELNGKLDGSAQRVPTPTGSVTELVAVLEKNVTVDEVNAAMKAASNESYGYTEDPIVSSDIVGMSYGSLFDATQTKVLDVDGKQLVKVVSWYDNEMSYTAQLVRTLEYFAKIAK
notes: GAPDH (Gap) of S. pneumoniae D39, recombinant; also called Gly-3-pho dehydrogenase; source: expressed and purified using the GST system
Kd (SPD_0310 [5]): 103 ± 1.29 nM

B2
stoichiometry N [6]: 4

B3: SPD_1609 (natural protein, S. pneumoniae D39, UniProt A0A0H2ZL87 1-355, looked up)
chain: CSGGSNSTTASSSEEKADKSQELVIYSNSVSNGRGDWLTAKAKEAGFNIKMVDIAGAQLADRVIAEKNNAVADMVFGIGAVDSNKIRDQKLLVQYKPKWLDKIDQSLSDKDNYYNPVIVQPLVLIGAPDVKEMPKDWTELGSKYKGKYSIYGLQGGTGRAILASILVRYLDEKGDLGVSEKGWEVAKEYFANAYTLQKGESSVVKALDKESPIQYGMIWGSGALIGQKEQNVEFKVMTPEIGVPFVTEQTMVLSTSKKQALAKEFIDWFGQSEIQVEYSKKFGSIPANKDALKELPEDTKKFVDQVKPQNIDWEAVGKHLDEWVEKAELEYVK
notes: source: expressed and purified using the GST system
Kd (SPD_0310 [5]): 6.92 ± 0.08 nM

B4: SPD_0090 (natural protein, S. pneumoniae D39, UniProt A0A0H2ZQK8 1-491, looked up)
chain: CGNLTGNSKKAADSGDKPVIKMYQIGDKPDNLDELLANANKIIEEKVGAKLDIQYLGWGDYGKKMSVITSSGENYDIAFADNYIVNAQKGAYADLTELYKKEGKDLYKALDPAYIKGNTVNGKIYAVPVAANVASSQNFAFNGTLLAKYGIDISGVTSYETLEPVLKQIKEKAPDVVPFAIGKVFIPSDNFDYPVANGLPFVIDLEGDTTKVVNRYEVPRFKEHLKTLHKFYEAGYIPKDVATSDTSFDLQQDTWFVREETVGPADYGNSLLSRVANKDIQIKPITNFIKKNQTTQVANFVISNNSKNKEKSMEILNLLNTNPELLNGLVYGPEGKNWEKIEGKENRVRVLDGYKGNTHMGGWNTGNNWILYINENVTDQQIENSKKELAEAKESPALGFIFNTDNVKSEISAIANTMQQFDTAINTGTVDPDKAIPELMEKLKSEGAYEKVLNEMQKQYDEFLKNKK
notes: as for B3
Kd (SPD_0310 [5]): 3.41 ± 0.01 nM

B5: SPD_0226 (natural protein)
chain: MTVGLSYEDSAVKLLNDGANIKVVYPKEGTVFLPASAAIVKKSKNMENAKKFIDFIISQEVQDTLGTTTTNRPVRKNAKTSENMKPIDKIKTLTEDYDYVIKNKSDIVKKYNEVFTDIQSKQ
notes: SPD_0226, intracellular iron transporter of S. pneumoniae D39
Kd (SPD_0310 [5]): 1070 ± 100 nM

B6: SPD_0227 (natural protein)
chain: MNIEGYSDLLKPELKGKIATADPANSSSAFAQLTNMLQAQGGYKDDKAWSYVKDLFTLIDGIVK
notes: SPD_0227, intracellular iron transporter of S. pneumoniae D39
Kd (SPD_0310 [5]): 420 ± 30 nM
